Experimental data reported in paper PMC4046932.

Biological target: Neisseria gonorrhoeae MtrD inner membrane multidrug efflux pump (Neisseria gonorrhoeae) (UniProt Q51073)
Test: crystal structure; sitting-drop vapor diffusion at room temperature; 20 mg/ml MtrD in 20 mM Na-HEPES pH 7.5, 0.05% Cymal-6; reservoir 30% PEG 400, 0.1 M Na-Bicine pH 8.5, 0.1 M NH4Cl, 0.05 M BaCl2, 9% glycerol; space group R32, one protomer per asymmetric unit; 3.53 Å

Neisseria gonorrhoeae MtrD inner membrane multidrug efflux pump (from UniProt Q51073 1-1067) (natural protein)
stoichiometry N: 3
